B1: EEHEE_rd4_0763 (parent)
chain: LTVHVGNVTYHFDNPEQAEEWAKRMAKKYQGQIHVKDGQFRIE

Variants of: B1
Assay: folding stability dG (cDNA display proteolysis); higher = more stable
Conditions: PBS, room temperature

Folding stability dG [kJ/mol] of substitutions, site by site:
G31: D 3.78 | M 8.6 | Y 5.74 | P 2.39 | S 6.13 | R 4.49 | A 7.77 | C 10.1 | H 6.13 | F 7.08 | K 5.2 | E 4.06 | V 7.46 | L 8.71 | Q 5.22 | N 4.26 | T 6.37 | W 7.78 | I 7.6
Q30: H 8.47 | I 4.93 | G 9.36 | D 6.34 | N 8.62 | S 6.94 | A 6.87 | P 4.97 | V 5.14 | T 5.02 | M 6.67 | L 5.82 | K 8.01 | F 6 | R 7.49 | W 5.49 | E 5.57
A18: S 2.31 | L 5.3 | Q 4.05 | N 0.188 | T 2.16 | I 4.21 | R 3.69 | F 6.09 | K 2.93 | V 4.17 | W 4.64 | Y 4.9 | P -0.502 | D 0.552 | H 2.41 | G 5.21 | C 6.46 | E 1.54 | M 5.05
H34: K 6.72 | M 7.05 | D 5.27 | P 3.56 | E 6.29 | G 4.19 | I 9.23 | L 7.34 | F 7.81 | Q 6.75 | N 6.36 | A 6.52
Q17: A 7.65 | T 6.56 | Y 6.4 | G 4.65 | I 6.31 | L 7.15 | P 2.06 | R 6.57 | W 6.44 | V 6.57 | N 5.79 | D 7.54 | F 5.69 | H 6.44 | S 6.87 | C 10.9 | E 7.69 | K 6.82 | M 6.75
E16: V 7.33 | T 7.02 | S 6.75 | W 6.97 | Y 6.95
K27: W 6.08 | T 6.62 | Y 6.33 | D 6.01 | H 6.4 | G 4.73 | I 7.38 | N 5.82 | M 7.3 | P 3.03 | S 6.48 | R 7.32 | V 6.69 | C 9.95 | F 6.57 | Q 6.94 | A 7.64 | L 7.31 | E 6.99
Y29: I 5.52 | V 5.31 | S 3.3 | Q 2.91 | A 3.19 | C 9.04 | K 2.95 | H 5.51 | E 2.58 | W 6.73 | L 7.03 | T 4.7 | R 3.03 | G 3.06 | P 1.28 | F 6.38 | D 2.08 | N 3.21 | M 5.64
E19: A 7.17 | I 7.84 | W 11 | G 5.06 | T 5.9 | K 6.79 | L 9.39 | N 5.66 | Q 6.61 | C 10.6 | Y 9.84 | V 7.08 | M 8.65 | R 7.07 | H 7.2 | P 2.7 | S 5.82 | D 4.42 | F 9.61
A22: Y 4.42 | F 5.13 | L 5.7 | T 3.12 | D -0.665 | E 0.979 | N 1.6 | P -3.44 | I 5.87 | Q 2.56 | W 5.31 | R 4.25 | S 3.44 | K 3.17 | G 2.76 | V 5.16 | H 2.78 | M 5.7
M25: G 0 | L 6.34 | H 3.16 | K 2.1 | V 5.15 | Y 6.06 | E 2.24 | N 2.63 | W 5.61 | P -2.13 | F 5.95 | A 3.66 | D -0.678 | T 3.06 | S 1.7 | R 2.37 | Q 3.51 | I 6.02 | C 8.5
K28: R 7.45 | N 3.44 | H 6.38 | M 6.29 | L 7.68 | V 5.97 | C 10.8 | T 4.31 | A 5.16 | E 5.72 | Q 5.64 | Y 7.18 | D 3.99 | P 2.17 | F 7 | G 2.9 | W 6.69 | I 6.72 | S 3.75
W21: I 1.65 | A 3.72 | H 2.91 | C 10.7 | G 0.0335 | L 2.79 | M 3.95 | N 0.0335 | K -1.03 | Q 1 | S 0.192 | E 1.43 | D -1.95 | T 1.28 | R -1.03 | V 2.16 | F 9.52 | Y 6.29
K23: I 7.35 | E 5.04 | V 6.53 | Y 6.77 | Q 6.51 | P -1.72 | H 6.61 | R 7.76 | A 5.45 | T 5.53 | S 4.86 | D 3.68 | L 7.06 | M 6.74 | C 9.92 | F 6.76 | W 6.55 | G 4.27 | N 5.78
Q32: R 6.87 | M 6.25 | C 8.07 | G 4.24 | T 8.33 | V 8.43 | E 6.52 | H 7.56 | L 6.2 | S 6.76 | F 6.4 | P 4.18 | I 8.51 | A 6.35 | D 5.31 | K 7.14 | W 5.06 | N 5.59 | Y 6.34
E20: S 6.77 | G 4.92 | L 7.05 | R 7.58 | Q 7.08 | M 7.13 | Y 7.05 | V 5.67 | K 7.54 | C 10.2 | P -2.18 | I 6.6 | T 5.82 | A 7.81 | W 8.02 | N 6.63 | H 5.9 | F 6.56 | D 6.46
I33: K 2.99 | F 5.88 | N 3.5 | P 3.49 | Y 5.03 | S 3.62 | W 5.61 | G 3.43 | C 8.67 | L 6.9 | V 6.65 | T 3.67 | H 3.56 | E 3.08 | A 4.31 | D 3.67 | M 5.07 | R 2.69 | Q 3.33
R24: W 6.99 | L 8.1 | P -2.82 | G 3.97 | S 5.55 | D 4.08 | M 7.72 | I 7.31 | T 6.06 | F 7.49 | Q 6.45 | A 7.02 | Y 7.84 | E 5.97 | N 4.58 | V 6.61 | H 6.02 | K 6.83
A26: L 5.23 | F 5.44 | S 4.79 | W 5.37 | G 3.52 | H 3.61 | E 2.69 | K 3.05 | T 3.13 | R 4.42 | D 1.64 | I 4.43 | Q 4.05 | N 3.81 | Y 4.8 | V 4.56 | M 5.35 | P 1.14
